Numbering of substitutions follows the chain as printed. In names and notes the source's numbering stands.
B1: msfGFP fused to PKD2(Ser425Cys) (other)
chain: IAIVSPQFQEISLPTTCTVIDGSQSTDDDKIVQYHWEELKGPLREEKISEDTAILKLSKLVPGNYTFSLTVVDSDGATNSTTANLTVNKA
notes: also called monomeric variant of super folder GFP adaptor protein; not shown: monomeric variant of super folder GFP (msfGFP)
B2: sfGFP-PKD2(Ser425Cys) adaptor fusion protein (other)
chain: B1 chain
notes: On the virus it forms the AAV1(Asp590Cys)<>sfGFP CAR-V; also called PKD2Cys; sfGFP-PKD2(Ser425Cys) fusion polypeptide; not shown: superfolder GFP (sfGFP)
B3: superfolder GFP fused to PKD2(Ser425Cys-Val480Glu) (other)
chain: B1 chain with V72E
notes: also called sfGFP-PKD2(Ser425Cys-Val480Glu); not shown: superfolder GFP
B4: superfolder GFP fused to PKD1(Ser356Cys) (other)
chain: SAGESVQITLPKNEVQLNAYVLQEPPKGETYTYDWQLITHPRDYCGEMEGKHSQILKLSKLTPGLYEFKVIVEGQNAHGEGYVNVTVKPE
notes: also called PKD1^S356C-derived AP; adaptor protein (38.2 kDa); not shown: superfolder GFP
B5: sfGFP-PKD2 fusion protein (wild type PKD2) (other)
chain: B1 chain with C17S
notes: also called sfGFP-PKD2 adaptor protein; PKD2WT; not shown: superfolder GFP (sfGFP)
B6: AAV1 wildtype capsid (virus particle) (other)
chain: MAADGYLPDWLEDNLSEGIREWWDLKPGAPKPKANQQKQDDGRGLVLPGYKYLGPFNGLDKGEPVNAADAAALEHDKAYDQQLKAGDNPYLRYNHADAEFQERLQEDTSFGGNLGRAVFQAKKRVLEPLGLVEEGAKTAPGKKRPVEQSPQEPDSSSGIGKTGQQPAKKRLNFGQTGDSESVPDPQPLGEPPATPAAVGPTTMASGGGAPMADNNEGADGVGNASGNWHCDSTWLGDRVITTSTRTWALPTYNNHLYKQISSASTGASNDNHYFGYSTPWGYFDFNRFHCHFSPRDWQRLINNNWGFRPKRLNFKLFNIQVKEVTTNDGVTTIANNLTSTVQVFSDSEYQLPYVLGSAHQGCLPPFPADVFMIPQYGYLTLNNGSQAVGRSSFYCLEYFPSQMLRTGNNFTFSYTFEEVPFHSSYAHSQSLDRLMNPLIDQYLYYLNRTQNQSGSAQNKDLLFSRGSPAGMSVQPKNWLPGPCYRQQRVSKTKTDNNNSNFTWTGASKYNLNGRESIINPGTAMASHKDDEDKFFPMSGVMIFGKESAGASNTALDNVMITDEEEIKATNPVATERFGTVAVNFQSSSTDPATGDVHAMGALPGMVWQDRDVYLQGPIWAKIPHTDGHFHPSPLMGGFGLKNPPPQILIKNTPVPANPPAEFSATKFASFITQYSTGQVSVEIEWELQKENSKRWNPEVQYTSNYAKSANVDFTVDNNGLYTEPRPIGTRYLTRPL
notes: Assembled virus particle: 60 monomers of VP1, VP2 and VP3 at about 1:1:10; VP2 and VP3 are N-terminally shorter forms of the same entry; also called AAV1WT; AAV1 capsid
B7: PKD2(V480E) mutant (receptor)
chain: B1 chain with C17S, V72E
notes: also called PKD2(V480E) variant of AAVR; Val480Glu mutation

How the values were obtained:
[1] = molecular target: T1, AAV1(Asp590Cys) virus particle (AAV1); assay: non-reducing Coomassie SDS-PAGE, covalent coupling of the PKD2(Ser425Cys) fusion with AAV1 D590C
T1 construct: Assembled particle of VP1, VP2 and VP3, all carrying the mutation; also called AAV1Cys; AAV1 Asp590Cys virions
T1 chain: B6 chain with D590C

[2] = molecular target: T1, AAV1(Asp590Cys) virus particle; assay: SDS-PAGE of the mixtures, non-reducing (top, bottom left) and reducing with βME (bottom right); shows disulfide-linked adducts only
[3] = molecular target: T1, AAV1(Asp590Cys) virus particle; assay: anti-VP1/2/3 immunoblot of a non-reducing gel, coupling at 3 µM adaptor in 1 mM TCEP
[4] = molecular target: T2, AAV2(Gln589Cys) virus particle (AAV2, UniProt P03135 1-735); assay: anti-VP1/2/3 immunoblot of a non-reducing gel, coupling at 5 µM adaptor
T2 construct: Assembled particle of VP1, VP2 and VP3

[5] = molecular target: T3, AAV5(Gln697Cys) virus particle (AAV5); assay: anti-VP1/2/3 immunoblot of a non-reducing gel, coupling at 10 µM adaptor
T3 construct: Assembled particle of VP1, VP2 and VP3; also called AAV5^Q697C

[6] = molecular target: T4, AAV2 wildtype virus particle (AAV2, UniProt P03135 1-735); assay: SPR; AAV2 virus amine-coupled on a CM3 chip, increasing concentrations of the fusion protein
T4 construct: Assembled particle of VP1, VP2 and VP3; The virus for SPR was commercially sourced; also called AAV2 wt

[7] = molecular target: T5, PKD2 domain of AAVR, wild type (Pongo abelii (Sumatran orangutan) …, UniProt Q5RFR6 409-498); assay: response-concentration plot on AAV1 capsid; method not named; PKD2 wild type
T5 construct: also called PKD2 wild type
T5 sequence: B1 chain with C17S

[8] = molecular target: B5; assay: SPR; AAV1 virus amine-coupled on a CM3 chip, increasing concentrations of the fusion protein
[9] = molecular target: B6; assay: response-concentration plot on AAV1 capsid; method not named; PKD2(V480E) mutant

Binder: B1
- binding result [1]: binds

Binder: B2
- binding result [2]: binds

Binder: B3
- binding result [3]: binds
- binding result [4]: binds

Binder: B4
- binding result [5]: binds

Binder: B5
- Kd [6]: ~6 µM

Binder: B6
- Kd [7]: 12.2 µM
- Kd [8]: ~2 µM

Binder: B7
- Kd [9]: 6.13 µM
